Experimental findings from paper PMC4361618, “Nab3 Facilitates the Function of the TRAMP Complex in RNA Processing via Recruitment of Rrp6 Independent of Nrd1” (PLoS Genetics, 2015) are described below.

Sequences and labels used below:
B2: His-tagged full-length Rrp6 (enzyme, S. cerevisiae, UniProt Q12149 1-733, looked up)
chain: MTSENPDVLLSRVINVVRAASSLASQDVDFYKNLDRGFSKDLKSKADKLADMANEIILSIDEHHESFELKEEDISDLWNNFGNIMDNLLEMSDHSLDKLNCAINSKSRGSDLQYLGEFSGKNFSPTKRVEKPQLKFKSPIDNSESHPFIPLLKEKPNALKPLSESLRLVDDDENNPSHYPHPYEYEIDHQEYSPEILQIREEIPSKSWDDSVPIWVDTSTELESMLEDLKNTKEIAVDLEHHDYRSYYGIVCLMQISTRERDYLVDTLKLRENLHILNEVFTNPSIVKVFHGAFMDIIWLQRDLGLYVVGLFDTYHASKAIGLPRHSLAYLLENFANFKTSKKYQLADWRIRPLSKPMTAYARADTHFLLNIYDQLRNKLIESNKLAGVLYESRNVAKRRFEYSKYRPLTPSSEVYSPIEKESPWKILMYQYNIPPEREVLVRELYQWRDLIARRDDESPRFVMPNQLLAALVAYTPTDVIGVVSLTNGVTEHVRQNAKLLANLIRDALRNIKNTNEEATPIPSSETKADGILLETISVPQIRDVMERFSVLCNSNISKSRAKPVTNSSILLGKILPREEHDIAYSKDGLPNKVKTEDIRIRAQNFKSALANLEDIIFEIEKPLVVPVKLEEIKTVDPASAPNHSPEIDNLDDLVVLKKKNIQKKQPAKEKGVTEKDAVDYSKIPNILSNKPGQNNRQQKKRRFDPSSSDSNGPRAAKKRRPAAKGKNLSFKR
notes: Rrp6, S. cerevisiae nuclear exosome 3'-5' riboexonuclease, full length, cloned into pET30a-TEV; also called His-Rrp6; His6-RRP6; source: E. coli DE3 cells, purified (nickel-NTA agarose, batch)

Test [1] addresses B2. In words: pull-down; 8 μg purified GST fusion incubated with 14 μg purified His-Rrp6 and glutathione Sepharose 4B in IPP100 buffer (10 mM Tris-HCl pH 8, 100 mM NaCl, 0.1% NP-40) with 10 mg/ml BSA, 2 mM DTT, 2 hr at 4°C; anti-His immunoblot. Particulars: both partners purified.
Test [2] addresses T1, recombinant GST-tagged full-length Nab3 (S. cerevisiae, UniProt P38996 1-802).
T1 construct: Nab3, S. cerevisiae, full length, cloned into pGEX-TEV; also called GST-Nab3; source: E. coli DE3 cells, purified (glutathione Sepharose 4B, batch)
T1 sequence (looked up): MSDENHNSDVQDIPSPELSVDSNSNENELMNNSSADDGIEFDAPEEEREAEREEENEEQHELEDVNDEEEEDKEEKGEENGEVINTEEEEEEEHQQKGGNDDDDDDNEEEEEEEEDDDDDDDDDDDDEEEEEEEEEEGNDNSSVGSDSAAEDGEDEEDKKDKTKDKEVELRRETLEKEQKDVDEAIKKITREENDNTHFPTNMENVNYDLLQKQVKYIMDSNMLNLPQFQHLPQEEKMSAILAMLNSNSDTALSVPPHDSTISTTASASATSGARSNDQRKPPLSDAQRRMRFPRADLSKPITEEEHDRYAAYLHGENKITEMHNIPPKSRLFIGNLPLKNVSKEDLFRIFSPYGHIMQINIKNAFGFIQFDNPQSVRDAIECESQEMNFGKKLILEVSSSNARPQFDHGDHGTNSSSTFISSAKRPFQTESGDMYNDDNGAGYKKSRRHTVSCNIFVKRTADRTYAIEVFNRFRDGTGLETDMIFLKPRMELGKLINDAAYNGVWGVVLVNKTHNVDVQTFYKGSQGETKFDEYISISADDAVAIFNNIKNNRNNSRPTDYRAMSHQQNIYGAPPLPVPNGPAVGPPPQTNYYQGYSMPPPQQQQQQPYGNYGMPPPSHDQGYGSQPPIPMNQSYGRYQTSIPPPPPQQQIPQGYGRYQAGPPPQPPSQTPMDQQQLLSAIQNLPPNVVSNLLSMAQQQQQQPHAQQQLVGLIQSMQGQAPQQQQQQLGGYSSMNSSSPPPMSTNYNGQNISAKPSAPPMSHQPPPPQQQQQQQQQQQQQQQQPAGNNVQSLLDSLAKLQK
The test is described as above. The settings on record: both partners purified.

A further test has as its target T2, TAP-tagged Nrd1 (S. cerevisiae, UniProt P53617 1-575).
T2 construct: also called Nrd1-TAP; source: S. cerevisiae NRD1-TAP strain (ACY2293; Thermo Scientific Open Biosystems), in lysate
T2 sequence (looked up): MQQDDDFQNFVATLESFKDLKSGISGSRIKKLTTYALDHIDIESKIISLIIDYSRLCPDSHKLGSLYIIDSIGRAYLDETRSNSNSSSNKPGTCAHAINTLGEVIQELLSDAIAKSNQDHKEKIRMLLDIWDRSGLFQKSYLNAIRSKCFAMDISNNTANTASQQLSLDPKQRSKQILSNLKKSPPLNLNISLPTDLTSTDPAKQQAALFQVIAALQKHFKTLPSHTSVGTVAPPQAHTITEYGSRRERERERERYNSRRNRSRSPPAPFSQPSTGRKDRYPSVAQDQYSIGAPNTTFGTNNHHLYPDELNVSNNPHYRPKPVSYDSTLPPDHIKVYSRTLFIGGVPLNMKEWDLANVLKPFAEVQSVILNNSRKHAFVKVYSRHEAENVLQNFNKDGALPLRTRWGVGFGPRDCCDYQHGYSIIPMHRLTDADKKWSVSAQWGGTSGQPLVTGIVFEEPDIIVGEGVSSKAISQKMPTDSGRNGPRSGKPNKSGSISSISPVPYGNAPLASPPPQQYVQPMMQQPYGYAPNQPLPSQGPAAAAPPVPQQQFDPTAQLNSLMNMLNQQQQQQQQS
Put plainly: co-IP; TAP-tagged Nrd1 precipitated on IgG Sepharose beads from lysates of NRD1-TAP yeast cells expressing Myc-tagged Nab3 proteins; IPP150 buffer (10 mM Tris-HCl pH 8, 150 mM NaCl, 0.1% NP-40), overnight at 4°C; anti-Myc immunoblot; % bound relative to input and to bound wild-type Nab3. The settings on record: partners not purified.

B1: GST-tagged Rrp47 (natural protein, S. cerevisiae, UniProt P38801 1-184, looked up)
chain: MEDIEKIKPYVRSFSKALDELKPEIEKLTSKSLDEQLLLLSDERAKLELINRYAYVLSSLMFANMKVLGVKDMSPILGELKRVKSYMDKAKQYDNRITKSNEKSQAEQEKAKNIISNVLDGNKNQFEPSISRSNFQGKHTKFENDELAESTTTKIIDSTDHIRKASSKKSKRLDKVGKKKGGKK
notes: Rrp47, S. cerevisiae exosome cofactor; RRP47 gene amplified (W303 gDNA template) and cloned into pGEX-TEV; also called GST-Rrp47; source: E. coli DE3 cells, purified (glutathione Sepharose 4B, batch)
As to B1, the binding result in test [1] is “binds”.
As to B2, the binding result in test [2] is “binds”.

B3: Myc-tagged nab3-ΔNBD mutant (Δ204–248) (natural protein, S. cerevisiae, UniProt P38996 1-802, looked up)
chain: MSDENHNSDVQDIPSPELSVDSNSNENELMNNSSADDGIEFDAPEEEREAEREEENEEQHELEDVNDEEEEDKEEKGEENGEVINTEEEEEEEHQQKGGNDDDDDDNEEEEEEEEDDDDDDDDDDDDEEEEEEEEEEGNDNSSVGSDSAAEDGEDEEDKKDKTKDKEVELRRETLEKEQKDVDEAIKKITREENDNTHFPTNMSDTALSVPPHDSTISTTASASATSGARSNDQRKPPLSDAQRRMRFPRADLSKPITEEEHDRYAAYLHGENKITEMHNIPPKSRLFIGNLPLKNVSKEDLFRIFSPYGHIMQINIKNAFGFIQFDNPQSVRDAIECESQEMNFGKKLILEVSSSNARPQFDHGDHGTNSSSTFISSAKRPFQTESGDMYNDDNGAGYKKSRRHTVSCNIFVKRTADRTYAIEVFNRFRDGTGLETDMIFLKPRMELGKLINDAAYNGVWGVVLVNKTHNVDVQTFYKGSQGETKFDEYISISADDAVAIFNNIKNNRNNSRPTDYRAMSHQQNIYGAPPLPVPNGPAVGPPPQTNYYQGYSMPPPQQQQQQPYGNYGMPPPSHDQGYGSQPPIPMNQSYGRYQTSIPPPPPQQQIPQGYGRYQAGPPPQPPSQTPMDQQQLLSAIQNLPPNVVSNLLSMAQQQQQQPHAQQQLVGLIQSMQGQAPQQQQQQLGGYSSMNSSSPPPMSTNYNGQNISAKPSAPPMSHQPPPPQQQQQQQQQQQQQQQQPAGNNVQSLLDSLAKLQK
notes: also called nab3 NBD mutant; nab3-NBD; source: S. cerevisiae (NRD1-TAP, RRP6-TAP or DIS3-TAP cells), 2μ URA3 plasmid, in lysate; not shown: 2xMyc, C-terminal, kept
As to B3, in the test with TAP-tagged Nrd1, the “% bound relative to wild-type Nab3” value came out at 8%.
